Measurements taken from patent publication US20130330362A1 (HEFEI TAIRUI BIOTECHNOLOGY, published 2013).

Biological target: T1, Epidermal Growth Factor Receptor (EGFR) protein (UniProt P00533 25-1210, limits assumed)
T1 construct: Bought protein; also called EGFR proteins; antigen EGFR
Assay: SPR, Biacore3000, CM5 chip, HBS-EP pH 7.4, mean of three runs
Procedure: The binding affinity between antibody and EGFR was assayed with Biacore3000 equipment. The EGFR proteins diluted with 10 mmol/L NaAc and having different pH (4.0, 4.5, 5.0 and 5.5) were formulated, and were pre-concentrated on CM5 chip to select the NaAc diluted protein with optimum pH. […] The binding affinities were computed with the software attached by Biacore3000.

B1: anti-EGFR humanized antibody L4-H3 (antibody, human IgG1, kappa, V domains shown)
VH: VKLLEQSGAEVKKPGASVKVSCKASGFSLTNYGVHWVRQAPGQRLEWMGVIWSGGNTDYNTPFTSRVTITRDTSATTAYMGLSSLRPEDTAVYYCARALTYYDYEFAYWGQGTLVTVSS
VL: ELVMTQSPSSLSASVGDRVNIACRASQSIGTNIHWYQQKPGKAPRLLIKYASESISGVPSRFSGSGSGTDFTLTISSLQPEDFAIYYCQQNNNWPTTFGGGTKVEIKR
notes: also called antibody of the present invention; the antibody
Q: How did the Kd turn out when B1 was run?
A: The Kd was 2.75 nM.
